Test results: paper PMC10033316

Assay: BS3 cross-linking, non-reducing SDS-PAGE, anti-Flag blot
Conditions: glycan changed form; control: K562/ADR cells (low GnT-III)

B1: TNF receptor 2 (TNFR2): GnT-III overexpression (protein)
parent chain: MAPVAVWAALAVGLELWAAAHALPAQVAFTPYAPEPGSTCRLREYYDQTAQMCCSKCSPGQHAKVFCTKTSDTVCDSCEDSTYTQLWNWVPECLSCGSRCSSDQVETQACTREQNRICTCRPGWYCALSKQEGCRLCAPLRKCRPGFGVARPGTETSDVVCKPCAPGTFSNTTSSTDICRPHQICNVVAIPGNASMDAVCTSTSPTRSMAPGAVHLPQPVSTRSQHTQPTPEPSTAPSTSFLLPMGPSPPAEGSTGDFALPVGLIVGVTALGLLIIGVVNCVIMTQVKKKPLCLQREAKVPHLPADKARGTQGPEQQHLLITAPSSSSSSLESSASALDRRAPTRNQPQAPGVEASGAGEARASTGSSDSSPGGHGTQVNVTCIVNVCSSSDHSSQCSSQASSTMGDTDSSPSESPKDEQVPFSKEECAFRSQLETPETLLGSTEEKPLPLGVPDAGMKPS
oligomerisation: decreases
